Test results from the RNAGym collection of RNA variant scans (doi:10.7554/elife.80360).

B1: HDV Ribozyme (parent)
chain: GGCCGGCAUGGUCCCAGCCUCCUCGCUGGCGCCGGCUGGGCAACAUUCCGAGGGGACCGUCCCCUCGGUAAUGGCGAAUGGGACCCA

Variants of: B1
Assay: self-cleavage, relative activity (ratio to wild type); higher = more cleavage; co-transcriptional

In order of falling self-cleavage:
1. GGCCGGCAUGGUCCCAGCCUCCUCGCUGGCGCCGGCUGGGCAACCUUCCGAGGGGACCGUCCCCUCGGUAAGGGCGAAUGGGACCCA  1.11
2. GGCCGGCAUGGUCCCAGCCUCCUCGCUGGCGCCGGCUGGGCAACAUUCCGAGGGGACCGUCCCCUCGUUAAUGGCGAAUGGGACGCA  1.07
3. GGCCGGCAUGGUCCCAGCCUCCUCGAUGGCGCCGGCUGGGCAACAUUGCGAGGGGACCGUCCCCUCGGUAAUGGCGAAUGGGACCCA  1.07
4. GGCCGGCAUGGUCCCAGCCUCCUCGGUGGCGCCGGCUGGGCAACAUUCCGAGGGGACCGUCCCCUCGGUAAUGGCGAAUGGGACACA  1.06
5. GGCCGGCAUGGUCCCAGCCUCCUCGCUGGCGCCGGCUGGGCAACAUACCGAGGGGACCGUCCCCUCGGUAGUGGCGAAUGGGACCCA  1.03
6. GGCCGGCAUGGUCCCAGCCUCCUCGCUGGCGCCGGCUGGGCAACAUUCCGAGGGGACCGUCCCAUCGGUAAUGGCAAAUGGGACCCA  0.997
7. GGCCGGCAUGGUCCCAGCCUCCUCGCUGGCGCCGGCUGGGCAACAUUCCGAGGGGACCGCCCCCUCGGUAAUGGCGAAUGGGACUCA  0.989
8. GGCCGGCAUGGUCCCAGCCUCCUCGCUGGCGCCGGCUGGGCAACAUUCCCAGGGGACCGUCCCCUCGGUAAUGGCGAAUGGGACCCG  0.974
9. GGCCGGCAUGGUCCUAGCCUCCUCGCUGGCGCCGGCUGGGCAACAUUCCGAGCGGACCGUCCCCUCGGUAAUGGCGAAUGGGACCCA  0.956
10. GGCCGGCAUGGUCCCAGCCUCCUCGCUGGCGCCGGCUGGGCAACAAUCCGAGGGGACCGUCCCCUCGGUAAUGGCUAAUGGGACCCA  0.954
11. GGCCGGCAUGGUCCCAGCCUCCUCGCUGGCGCCGGCUGGGCAACAUUCCGAGGGGACCGUCCCCUCGCUAAUGGCGAAUGGGACUCA  0.892
12. GGCCGGCACGGUCCCAGCCUCCUCGCUGGCGCCGGCUGGGCAACAUUCCAAGGGGACCGUCCCCUCGGUAAUGGCGAAUGGGACCCA  0.877
13. GGCCGGCAUGGUCCCAGCCUCCUCGCUGGCGCCGGCUGGGCAACAUUCCGAGGGGACCGUCCGCUCGGUAAUGGCGAAUGGGACCUA  0.816
14. GGCCGGCAUGGUCCCAGCCUCCUCGCUGGUGCCGGCUGGGCAACAUUCCGAGGGGACCGUCCCUUCGGUAAUGGCGAAUGGGACCCA  0.806
15. GGCCGGCAUGGUCCCAGCCUCCUCGCUGGCGCCGGCUGGGGAACAUUCCGAGGGGACCGUCCCCUCGGUAAGGGCGAAUGGGACCCA  0.795
16. GGCCGGCAUGGUCCCAGCCUCCUCGAUGGCGCCGGCUGGGCAACAUUCCGAGGAGACCGUCCCCUCGGUAAUGGCGAAUGGGACCCA  0.79
17. GGCCGGCAUUGUCCCAGCCUCCUCGCUGGCGCCGGCUGGGCAACAUUCCGAGGGGACCGUCCCUUCGGUAAUGGCGAAUGGGACCCA  0.748
18. GGCCGGCAUGGUCCCAGCCUCCUCGCUGGCGCCGGCUGGGCAACAUUCCGAGGGGACCGUCGCCUCGGUAAUGGCGAAUGGGACCCA  0.695
19. GGCCGGCAUGGUCCCAGCCUCCUCGCUGGCGCCGACUGGGCAACAUUCCGAGGGGAGCGUCCCCUCGGUAAUGGCGAAUGGGACCCA  0.684
20. GGCCGGCAUGGUCCCAGCCUCCUCGCUGGCGCCGGCUGGGCAACAUUCCGAGGGGACCGUCUCCUCGUUAAUGGCGAAUGGGACCCA  0.68
21. GGCCGGCAUGGUCCCAGCCUCCUCGCUGGCGCCGGCUGGGCAACAUUUCGAGGGGACCGUCCCCUCGGUAAUGGCGAAGGGGACCCA  0.665
22. GGCCGGCAUGGUCCCAGCCUCCUCGCUGGCGCCGGCUGGGCACCAUUCCGAGGGGACCGUCCCCUCGGUAAUGGCGAAUGGGACCUA  0.649
23. GGCCGGCUUGGUCCCAGCCUCCUCGCUGGCGCCGGCUGGGCAACGUUCCGAGGGGACCGUCCCCUCGGUAAUGGCGAAUGGGACCCA  0.489
24. GGCCGGCAUGGUCCCAGCCUCCUUGCUGGCGCCGGCUGGGCAAUAUUCCGAGGGGACCGUCCCCUCGGUAAUGGCGAAUGGGACCCA  0.434
25. GGCCGGCAUGGUCCCAGCCUCCUCGCUGGCGCCGGCUGGGCAUCAUUCCGAGGGGACCGUCCCCUCGGUAAUGGCGAAUGGGACCCU  0.425
26. GGCCGGCAUGGUCCCAGCCUCCUCGCUGGCCCCGGCUGGGCAACAUUCAGAGGGGACCGUCCCCUCGGUAAUGGCGAAUGGGACCCA  0.415
27. GGCCGGCAUGGUCCCGGCCUCCUCGCUGGCGCCGGCUGGGCAACAUUCCGAGGGGACCGUCCCCUCGGUAAUGACGAAUGGGACCCA  0.404
28. GGCCGGCAUGGUCCCAGCCUCCUCGCUGGCACCGGCUGGGCAACAUUCCGAGGGGACCGUCCCCUCGGUAAUGGCGAAUGGGACGCA  0.367
29. GGCCGGCAUGGUCCCAGCCUCCUCGCUGGCGCCGGCUGGGCACCAUUCCGAGGGGACCGUGCCCUCGGUAAUGGCGAAUGGGACCCA  0.359
30. GGCCGGCAUGGUCCCAGCCUCCUCGCUGGCGCCGGCUGGGCAACAUUCCGUGGGGACCGUCCCCUCGGUAAUGGCGAAUAGGACCCA  0.344
31. GGCCGGCAUGGUCCCAGCCUCCUCGCUGGCGCCGGCUGGGCAACAUUCCGAGGGAACCGUCCCCUCGGUAAUGGCGAAUGUGACCCA  0.34
32. GGCCGGCAUGGUCCCAGCCUCCUCGCUGGCGCCGGCUGGGCAACAUUCCGAGGGGACCGUCCCCUAGGUAAUGGCGAAUGGCACCCA  0.34
33. GGCCGGCAUGAUCCCAGCCUCCUCGCUGGCGCCGGCUGGGCAACAUUCCGAGGGGACCGUCCCCGCGGUAAUGGCGAAUGGGACCCA  0.305
34. UGCCGGCAUGCUCCCAGCCUCCUCGCUGGCGCCGGCUGGGCAACAUUCCGAGGGGACCGUCCCCUCGGUAAUGGCGAAUGGGACCCA  0.288
35. GGCCGGCAUGGACCCAGCCUCCUCGCUGGCGCCGGCCGGGCAACAUUCCGAGGGGACCGUCCCCUCGGUAAUGGCGAAUGGGACCCA  0.277
36. GGCCGGCACGGUCCCAGCCUCCUCGCUGGCACCGGCUGGGCAACAUUCCGAGGGGACCGUCCCCUCGGUAAUGGCGAAUGGGACCCA  0.269
37. GGCCGGCAUGGUCCCCGCCUCCUCGCUGGCGCCGGCUGGGCAACAUUCCGAGGGGACCGUCCCCCCGGUAAUGGCGAAUGGGACCCA  0.256
38. AGCCGGCAUGGUCCCAGCCUCCUCGCUGGCGCCGGCUGGGCAACAUUCCGAGGGGACCGUCCCCUCGGUGAUGGCGAAUGGGACCCA  0.214
39. GGCCGGCAUGGUCCCAGCCUCCUCGAUGGCGCCGGCUUGGCAACAUUCCGAGGGGACCGUCCCCUCGGUAAUGGCGAAUGGGACCCA  0.208
40. GGCCGGCAUGGUCCCAGCCUCCUCGCUGGCGCCGGCUGGGCAACAUUACGAGGGGACCGUCCCCUCGGUAAUGCCGAAUGGGACCCA  0.208
41. GGCCGGCAUGGUCCCAGCCUCCUCGCUGGCGCCGGCUGGGCAACAUUCCGAGGGGACCGUCCCCUCGGAAAUGGCGCAUGGGACCCA  0.199
42. GGCCAGCAUGGUCCCAGCCUCCUCGCUGGCGCCGGCUGGGCAACAUUCCGAGGGGACCGUCCCCUCGGUAAUGGCGAGUGGGACCCA  0.178
43. GGCCGGCAUGGUCCGAGCCUCCUCGCUGGCGCCGGCUGGGCGACAUUCCGAGGGGACCGUCCCCUCGGUAAUGGCGAAUGGGACCCA  0.166
44. GGCCGGCAUGGUCCCAGCCUCCUCGCCGGCGCCGGAUGGGCAACAUUCCGAGGGGACCGUCCCCUCGGUAAUGGCGAAUGGGACCCA  0.142
45. AGCCGGCAUGGUCCCAGCCUCCUCGCUGGCGCCGGCUGGGCAAGAUUCCGAGGGGACCGUCCCCUCGGUAAUGGCGAAUGGGACCCA  0.138
46. GGCCGGCAUGGUCCCAGCCUCCUCGCUGGAGCCGGCUGGGCAAUAUUCCGAGGGGACCGUCCCCUCGGUAAUGGCGAAUGGGACCCA  0.132
47. GGCCGGCAUGGUCCCAGCCUCCUCGAUGACGCCGGCUGGGCAACAUUCCGAGGGGACCGUCCCCUCGGUAAUGGCGAAUGGGACCCA  0.13
48. GGCCGGCAUGGUCCCAGCCUCCUCGCUGGCGCCGGCUGGGGAACAUUCCGAGGGGACCGUCCCCUCGGUAAUGGCGAAUGGGCCCCA  0.123
49. GGCCGGCAUGGUCCCAGCCUCCUCGCUGUCGCCGGCUGGUCAACAUUCCGAGGGGACCGUCCCCUCGGUAAUGGCGAAUGGGACCCA  0.0923
50. GGCCGGCAUGGUCCCAGCCUCCUCGCUGGCGCCGGAUGGGCAACAUUCCGAGGGGACCGUCCCCUCGGUAAUGGCGAACGGGACCCA  0.086
51. GGCCGGCAUGGUCCCAGCCUCCUCGCUGGCGCUGGCUGGGCAACAUUCCGAGGGGACCGUCCCCUCGGUAAUGGUGAAUGGGACCCA  0.0817
52. GGCCGGCAUGGUCCCCGCCUCCUCGCUGUCGCCGGCUGGGCAACAUUCCGAGGGGACCGUCCCCUCGGUAAUGGCGAAUGGGACCCA  0.0755
53. GGCUGGCAUGGUCCCAGCCUCCUCGCUGGCGCCGGCUGGGCAACAUUCCGAGGGGACCGUCCCCUCGGUAAUGGCGAAUGUGACCCA  0.0723
54. GGCCGGCAUGGUCCCAGCAUCCUCGCCGGCGCCGGCUGGGCAACAUUCCGAGGGGACCGUCCCCUCGGUAAUGGCGAAUGGGACCCA  0.0536
55. GGCCGGCAUGGUCCCAGCCUCGUCGCUGGCGCCGGCUGGGCAACAUUCCGAGGGGACCGUCCCCUCGGUAAUGGCGAAUGAGACCCA  0.0528
56. GGCCGGCAUGGUCCCAGCAUCCUCGCUGGCGCCGGCUGGGCAACAUUCCGAGGGGACCGUCCCCUCGGUAAUGGGGAAUGGGACCCA  0.0528
57. GGCCGGCAUGGUCCCAGCUUCCUCGCUGGCGGCGGCUGGGCAACAUUCCGAGGGGACCGUCCCCUCGGUAAUGGCGAAUGGGACCCA  0.0482
58. GGCCGGCAUGGUCCCAGCCUCCUCGCUGGCUCCGGCUGGGCAGCAUUCCGAGGGGACCGUCCCCUCGGUAAUGGCGAAUGGGACCCA  0.0475
59. GGCCCGCAUGGUCCCAGCCUCCUCGCUGGCGCCGGCUGGGCAACAUUCCGAGGGGACCGUCCCGUCGGUAAUGGCGAAUGGGACCCA  0.0462
60. GGCCGGCAUGGUCCCAGCCUCGUCGCUGGCGCCGGCUGGGCAACUUUCCGAGGGGACCGUCCCCUCGGUAAUGGCGAAUGGGACCCA  0.0415
61. GGCAGGCAUGGUCCCAGCCUCCUCGCUGGCGCCGUCUGGGCAACAUUCCGAGGGGACCGUCCCCUCGGUAAUGGCGAAUGGGACCCA  0.0369
62. GGCCGGCAUGGUCCCAGCCUCCUCGCUAGCGCCGGCUGGGCAACAUUCGGAGGGGACCGUCCCCUCGGUAAUGGCGAAUGGGACCCA  0
63. GGCCGGCAUGGCCCCAGCCUCCUCGCUGGCGCCGGCUGGGCUACAUUCCGAGGGGACCGUCCCCUCGGUAAUGGCGAAUGGGACCCA  0
64. GGCGGGCAUGGUCCCAGCCUCCUCGCUGACGCCGGCUGGGCAACAUUCCGAGGGGACCGUCCCCUCGGUAAUGGCGAAUGGGACCCA  0
